{
  "source": "patent US10736941B2",
  "about": "“Cell membrane-permeating peptide” (NATIONAL UNIVERSITY CORPORATION KUMAMOTO UNIVERSITY, priority 2015, dated 2020)",
  "key": {"Caco-2 cells [1]": {"tested_on": "Caco-2 cells", "assay": "Cell toxicity to Caco-2 cells (Cell Counting kit 8)", "format": "cell-based, human", "settings": "Caco-2 cells treated for 24 hours, 10 μM", "procedure": "For cell toxicity, 100 μL of 0-10 μM DNP peptide was added to Caco-2 cells cultured in a 96-well plate, and the cell survival rates after 1, 6 and 24 hours were measured using Cell Counting kit 8 (DOJINDO Laboratories).\n(§1) Caco-2 cells were treated for 24 hours using the cyclic peptide DNP having highest permeability at a concentration of 10 μM, but weakening of cell toxicity and tight junction was not observed."}, "Caco-2 cells [2]": {"tested_on": "Caco-2 cells", "assay": "Influence on tight junction of Caco-2 cells (TEER, Millicell ERS-2)", "format": "cell-based, human", "settings": "Caco-2 cells treated for 24 hours, 10 μM", "procedure": "For the influence on tight junction, Caco-2 cells were cultured in Transwell, then, 2 mL of 0-10 μM peptide DNP was added at the apical (AP) side, and 1, 2, 3, 6, 12 and 24 hours after addition, the electric resistance value (TEER) was measured using Millicell ERS-2.\nas §1"}, "Caco-2 cells [3]": {"tested_on": "Caco-2 cells", "assay": "Competitive inhibition of DNP-presenting phage permeation through Caco-2 cells by synthetic unlabeled DNP peptide", "format": "cell-based, human", "settings": "unlabeled DNP 10 μM", "procedure": "The experiment of permeation using Caco-2 cells was conducted according to a report of Ohura et al. (J. Pharm. Sci. Vol 100, No. 9, 2011). Each phage stock was prepared by diluting with an HBSS buffer so as to give a concentration of 5×10^11 pfu/mL. Caco-2 cells placed in Transwell (manufactured by Coring) were cultured, and formation of sufficient tight junction was confirmed, then, Transwell was transferred to a new 6-well plate. To the apical (AP) side of the cell, 2 mL of the phage preparation liquid was added and incubated at 37° C. (this time point t=0 min). When reached each time point, Transwell was transferred to a new 6-well plate. The time point was 1, 3, 5, 10 and 30 min. The sample at the basal (BA) side at each time point was kept on ice. When reached 30 min, Transwell was transferred to a new 6-well plate, and the HBSS buffer at the AP side was aspirated, then, the cells were recovered into a centrifugal tube. The titre at the BA side and the titre in the supernatant at each time point were measured by qPCR. […]\nThe DNP-presenting phage permeating Caco-2 cells was measured in the presence or in the absence of the unlabeled DNP, in the same manner as in Example 1. […]"}, "[4]": {"tested_on": "mouse small intestine closed loop", "assay": "Promotion of insulin absorption by co-administration of cyclic peptide, mouse small intestine closed loop, blood glucose level", "format": "in vivo", "settings": "DNPGNET 5 mM co-administered with insulin 10 IU/kg into mouse small intestine loop, versus insulin alone, over 60 minutes", "procedure": "The influence on insulin absorption by co-administration of the cyclic peptide of the present invention was studied by measuring the blood glucose level.\nWe asked GenScript Japan Inc. to synthesize a cyclic peptide shown in FIG. 4B containing a sequence of DNPGNET (SEQ TD No: 5).\nA peptide was prepared by using 100 μL of a hot HBSS solution so that the concentration of insulin was 10 IU/kg and the concentration of DNPGNET was 5 mM and incubated at 37° C. for 1 hour, and the resultant was used in the co-administration group. For the insulin single administration group, a sample was prepared by using 100 μL of a hot HBSS solution so that the concentration of insulin was 10 IU/kg and incubated at 37° C. for 1 hour, and the resultant peptide was used. In the same manner as in Example 6, a mouse small intestine closed loop was produced, then, the DNPGNET+insulin solution or the insulin solution prepared previously was administered into the loop. The time of administration was 0 min, and the blood glucose level was measured over a time of 60 minutes by using ACCU-CHEK (registered trademark) Aviva Nano."}},
  "note": "Where no end group is shown, it is not given here.",
  "data": [
    {"substance": "DNPGNET (also: cyclic peptide, mode of cyclisation not given here)", "values": [
      {"measurement": "cell toxicity", "setting": "Caco-2 cells [1]", "result": "not observed"},
      {"measurement": "weakening of tight junction (TEER)", "setting": "Caco-2 cells [2]", "result": "not observed"},
      {"measurement": "competitive inhibition of DNP-presenting phage permeating Caco-2 cells", "setting": "Caco-2 cells [3]", "result": "competitive inhibition occurs"},
      {"measurement": "insulin absorption (blood glucose level)", "setting": "[4]", "result": "absorption of insulin was promoted"}
    ]}
  ]
}
